Assays:
Human Factor XIa (human) [1] = molecular target: Human Factor XIa (human) (UniProt P03951)
Human Factor XIa (human) [2] = molecular target: Human Factor XIa (human) (UniProt P03951); assay: inhibition of FXIa, chromogenic substrate, fit for tight-binding inhibitors (apparent Ki*)
[3] = molecular target: Human plasma kallikrein (human) (UniProt P03952); assay: inhibition of human plasma kallikrein, substrate S2302, fit for tight-binding inhibitors (apparent Ki*)
Human Factor XIa (human) [4] = molecular target: Human Factor XIa (human) (UniProt P03951); remark: listed apart in the source
[5] = molecular target: Human plasma kallikrein (human) (UniProt P03952)
[6] = molecular target: tissue factor-Factor VIIa (human) (UniProt P13726)

fold prolongation of the clotting time of normal human plasma, APTT assay (Human Factor XIa (human) [1]): 2.8 fold
Ki (Human Factor XIa (human) [2]): 2.7 nM
Ki [3]: 340 nM
fraction of remaining proteolytic activity with 100 nM inhibitor (fraction of uninhibited rate) (Human Factor XIa (human) [4]): 0.03
fraction of remaining proteolytic activity with 100 nM inhibitor (fraction of uninhibited rate) [5]: 0.81
fraction of remaining proteolytic activity with 100 nM inhibitor (fraction of uninhibited rate) [6]: 0.6
Substance: APPI (Alzheimer's amyloid β-protein precursor inhibitor)
